The values that follow come from US20080014191A1.

This assay deals with wild-type cystic fibrosis transmembrane conductance regulator (CFTR) (Homo sapiens (Human)) (UniProt P13569). In words: CFTR co-IP, MudPIT MS; BHK wt.
wild-type cystic fibrosis transmembrane conductance regulator (CFTR) (Homo sapiens (Human)), sequence (P13569 whole entry): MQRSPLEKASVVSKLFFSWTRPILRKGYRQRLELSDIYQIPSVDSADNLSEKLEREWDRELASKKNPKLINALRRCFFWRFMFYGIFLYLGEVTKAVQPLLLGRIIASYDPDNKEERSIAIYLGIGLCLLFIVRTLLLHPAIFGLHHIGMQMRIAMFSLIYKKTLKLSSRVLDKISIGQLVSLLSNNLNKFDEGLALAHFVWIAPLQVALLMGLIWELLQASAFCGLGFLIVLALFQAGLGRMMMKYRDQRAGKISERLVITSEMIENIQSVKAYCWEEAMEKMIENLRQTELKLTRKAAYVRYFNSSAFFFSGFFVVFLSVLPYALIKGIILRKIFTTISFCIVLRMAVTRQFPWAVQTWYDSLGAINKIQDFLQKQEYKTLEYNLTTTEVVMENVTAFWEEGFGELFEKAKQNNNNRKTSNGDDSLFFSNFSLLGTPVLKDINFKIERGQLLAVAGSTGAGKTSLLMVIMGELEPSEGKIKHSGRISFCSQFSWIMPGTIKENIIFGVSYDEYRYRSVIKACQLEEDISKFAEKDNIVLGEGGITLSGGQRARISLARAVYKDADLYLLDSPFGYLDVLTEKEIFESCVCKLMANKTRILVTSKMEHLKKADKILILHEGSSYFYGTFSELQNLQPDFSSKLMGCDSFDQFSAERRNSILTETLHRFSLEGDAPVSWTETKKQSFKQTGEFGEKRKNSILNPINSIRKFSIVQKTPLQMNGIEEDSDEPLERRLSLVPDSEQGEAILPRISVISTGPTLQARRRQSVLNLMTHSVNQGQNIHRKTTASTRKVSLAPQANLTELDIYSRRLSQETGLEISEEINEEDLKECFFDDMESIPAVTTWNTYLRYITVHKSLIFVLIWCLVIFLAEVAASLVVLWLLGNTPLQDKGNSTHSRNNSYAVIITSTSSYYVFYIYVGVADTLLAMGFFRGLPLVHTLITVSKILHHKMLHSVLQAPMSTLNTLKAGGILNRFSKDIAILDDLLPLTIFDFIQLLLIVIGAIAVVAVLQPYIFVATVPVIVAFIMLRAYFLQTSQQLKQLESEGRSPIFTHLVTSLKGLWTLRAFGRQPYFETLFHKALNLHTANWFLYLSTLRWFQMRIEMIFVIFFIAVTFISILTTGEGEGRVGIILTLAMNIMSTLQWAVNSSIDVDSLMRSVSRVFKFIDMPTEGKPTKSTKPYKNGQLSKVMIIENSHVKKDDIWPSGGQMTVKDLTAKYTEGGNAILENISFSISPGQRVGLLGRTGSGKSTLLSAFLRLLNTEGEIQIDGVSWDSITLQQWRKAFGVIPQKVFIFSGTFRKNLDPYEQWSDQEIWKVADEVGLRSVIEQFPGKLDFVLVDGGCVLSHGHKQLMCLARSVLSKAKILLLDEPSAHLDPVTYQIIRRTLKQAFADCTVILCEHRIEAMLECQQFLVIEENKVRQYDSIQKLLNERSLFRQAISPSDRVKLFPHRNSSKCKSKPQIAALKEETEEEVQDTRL

B1: Calnexin (protein, UniProt P27824 21-592, looked up)
chain: HDGHDDDVIDIEDDLDDVIEEVEDSKPDTTAPPSSPKVTYKAPVPTGEVYFADSFDRGTLSGWILSKAKKDDTDDEIAKYDGKWEVEEMKESKLPGDKGLVLMSRAKHHAISAKLNKPFLFDTKPLIVQYEVNFQNGIECGGAYVKLLSKTPELNLDQFHDKTPYTIMFGPDKCGEDYKLHFIFRHKNPKTGIYEEKHAKRPDADLKTYFTDKKTHLYTLILNPDNSFEILVDQSVVNSGNLLNDMTPPVNPSREIEDPEDRKPEDWDERPKIPDPEAVKPDDWDEDAPAKIPDEEATKPEGWLDDEPEYVPDPDAEKPEDWDEDMDGEWEAPQIANPRCESAPGCGVWQRPVIDNPNYKGKWKPPMIDNPSYQGIWKPRKIPNPDFFEDLEPFRMTPFSAIGLELWSMTSDIFFDNFIICADRRIVDDWANDGWGLKKAADGAAEPGVVGQMIEAAEERPWLWVVYILTVALPVFLVILFCCSGKKQTSGMEYKKTDAPQPDVKEEEEEKEEEKDKGDEEEEGEEKLEEKQKSDAEEDGGTVSQEEEDRKPKAEEDEILNRSPRNRKPRRE
In turn, B1 yielded a % sequence coverage of 10%, a total spectra of 7 spectra and a unique spectra of 4 spectra.
